# Measurements reported in IntAct's records for PubMed 29892012.
# B1: Late cornified envelope protein 1B (Homo sapiens), Q5T7P3 (parent)
# chain: MSCQQNQQQCQPPPKCIPKCPPKCLTPRCPPKCPPKCPPVSSCCSVSSGGCCGSSSGGSCGSSSGGCCSSGGGGCCLSHHRRRRSHCHRPQSSGCCSQPSGGSSCCGGGSGQHSGGCC
# partner: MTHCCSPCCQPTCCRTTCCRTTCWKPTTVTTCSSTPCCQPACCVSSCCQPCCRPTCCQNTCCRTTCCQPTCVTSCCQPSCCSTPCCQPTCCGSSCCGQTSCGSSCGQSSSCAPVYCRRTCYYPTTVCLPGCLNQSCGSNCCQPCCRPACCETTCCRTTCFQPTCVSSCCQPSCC
# B2: Forkhead box protein P3 (Homo sapiens), Q9BZS1 (parent)
# chain: MPNPRPGKPSAPSLALGPSPGASPSWRAAPKASDLLGARGPGGTFQGRDLRGGAHASSSSLNPMPPSQLQLPTLPLVMVAPSGARLGPLPHLQALLQDRPHFMHQLSTVDAHARTPVLQVHPLESPAMISLTPPTTATGVFSLKARPGLPPGINVASLEWVSREPALLCTFPNPSAPRKDSTLSAVPQSSYPLLANGVCKWPGCEKVFEEPEDFLKHCQADHLLDEKGRAQCLLQREMVQSLEQQLVLEKEKLSAMQAHLAGKMALTKASSVASSDKGSCCIVAAGSQGPVVPAWSGPREAPDSLFAVRRHLWGSHGNSTFPEFLHNMDYFKFHNMRPPFTYATLIRWAILEAPEKQRTLNEIYHWFTRMFAFFRNHPATWKNAIRHNLSLHKCFVRVESEKGAVWTVDELEFRKKRSQRPSRCSNPTPGP
# B3: RNA-binding protein 3 (Homo sapiens), P98179 (parent)
# chain: MSSEEGKLFVGGLNFNTDEQALEDHFSSFGPISEVVVVKDRETQRSRGFGFITFTNPEHASVAMRAMNGESLDGRQIRVDHAGKSARGTRGGGFGAHGRGRSYSRGGGDQGYGSGRYYDSRPGGYGYGYGRSRDYNGRNQGGYDRYSGGNYRDNYDN
# partner: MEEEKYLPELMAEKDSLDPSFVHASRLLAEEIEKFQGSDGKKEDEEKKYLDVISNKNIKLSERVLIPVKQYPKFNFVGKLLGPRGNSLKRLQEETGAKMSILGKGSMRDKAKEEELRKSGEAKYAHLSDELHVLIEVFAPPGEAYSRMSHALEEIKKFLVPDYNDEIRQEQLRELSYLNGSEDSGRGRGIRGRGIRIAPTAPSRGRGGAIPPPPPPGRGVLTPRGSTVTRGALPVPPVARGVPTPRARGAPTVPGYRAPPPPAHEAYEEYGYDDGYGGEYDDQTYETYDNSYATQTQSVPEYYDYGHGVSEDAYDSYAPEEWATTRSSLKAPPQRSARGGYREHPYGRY
# B4: ADP/ATP translocase 3 (Homo sapiens), P12236 (parent)
# chain: MTEQAISFAKDFLAGGIAAAISKTAVAPIERVKLLLQVQHASKQIAADKQYKGIVDCIVRIPKEQGVLSFWRGNLANVIRYFPTQALNFAFKDKYKQIFLGGVDKHTQFWRYFAGNLASGGAAGATSLCFVYPLDFARTRLAADVGKSGTEREFRGLGDCLVKITKSDGIRGLYQGFSVSVQGIIIYRAAYFGVYDTAKGMLPDPKNTHIVVSWMIAQTVTAVAGVVSYPFDTVRRRMMMQSGRKGADIMYTGTVDCWRKIFRDEGGKAFFKGAWSNVLRGMGGAFVLVLYDELKKVI
# B5: Retinoic acid receptor alpha (Homo sapiens), P10276 (parent)
# chain: MASNSSSCPTPGGGHLNGYPVPPYAFFFPPMLGGLSPPGALTTLQHQLPVSGYSTPSPATIETQSSSSEEIVPSPPSPPPLPRIYKPCFVCQDKSSGYHYGVSACEGCKGFFRRSIQKNMVYTCHRDKNCIINKVTRNRCQYCRLQKCFEVGMSKESVRNDRNKKKKEVPKPECSESYTLTPEVGELIEKVRKAHQETFPALCQLGKYTTNNSSEQRVSLDIDLWDKFSELSTKCIIKTVEFAKQLPGFTTLTIADQITLLKAACLDILILRICTRYTPEQDTMTFSDGLTLNRTQMHNAGFGPLTDLVFAFANQLLPLEMDDAETGLLSAICLICGDRQDLEQPDRVDMLQEPLLEALKVYVRKRRPSRPHMFPKMLMKITDLRSISAKGAERVITLKMEIPGSMPPLIQEMLENSEGLDTLSGQPGGGGRDGGGLAPPPGSCSPSLSPSSNRSSPATHSP
# partner: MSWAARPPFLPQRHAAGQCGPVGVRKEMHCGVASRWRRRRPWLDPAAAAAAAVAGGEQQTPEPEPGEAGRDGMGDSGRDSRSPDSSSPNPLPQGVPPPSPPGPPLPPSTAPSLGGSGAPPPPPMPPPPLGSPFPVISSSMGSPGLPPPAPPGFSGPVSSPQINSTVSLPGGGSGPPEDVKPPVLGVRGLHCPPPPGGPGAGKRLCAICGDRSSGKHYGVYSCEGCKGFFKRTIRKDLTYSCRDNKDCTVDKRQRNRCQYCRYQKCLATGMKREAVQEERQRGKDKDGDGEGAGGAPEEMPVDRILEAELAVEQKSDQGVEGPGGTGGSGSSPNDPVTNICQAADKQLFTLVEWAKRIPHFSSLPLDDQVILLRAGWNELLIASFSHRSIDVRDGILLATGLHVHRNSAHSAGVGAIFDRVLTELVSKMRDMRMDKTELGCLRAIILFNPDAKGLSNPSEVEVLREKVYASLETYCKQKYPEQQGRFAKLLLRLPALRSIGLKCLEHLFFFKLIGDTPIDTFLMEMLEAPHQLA
# Variants of: B1
# Details: with kra92_human KRTAP9-2, Q9BYQ4
row,effect of a mutation on the interaction,Variant
1,disrupting interaction strength,MSCQQNQQQCQPPPKYIPKCPPKCLTPRCPPKCPPKCPPVSSCCSVSSGGCCGSSSGGSCGSSSGGCCSSGGGGCCLSHHRRRRSHCHRPQSSGCCSQPSGGSSCCGGGSGQHSGGCC

# Variants of: B2
# Details: with pr20e_human PRR20E
row,effect of a mutation on the interaction,Variant
1,with no effect,MPNPRPGKPSAPSLALGPSPGASPSWRAAPKASDLLGARGPGGTFQGRDLRGGAHASSSSLNPMPPSQLQLPTLPLVMVAPSGARLGPLPHLQALLQDRPHFMHQLSMVDAHARTPVLQVHPLESPAMISLTPPTTATGVFSLKARPGLPPGINVASLEWVSREPALLCTFPNPSAPRKDSTLSAVPQSSYPLLANGVCKWPGCEKVFEEPEDFLKHCQADHLLDEKGRAQCLLQREMVQSLEQQLVLEKEKLSAMQAHLAGKMALTKASSVASSDKGSCCIVAAGSQGPVVPAWSGPREAPDSLFAVRRHLWGSHGNSTFPEFLHNMDYFKFHNMRPPFTYATLIRWAILEAPEKQRTLNEIYHWFTRMFAFFRNHPATWKNAIRHNLSLHKCFVRVESEKGAVWTVDELEFRKKRSQRPSRCSNPTPGP [T108M]

# Variants of: B2
# Details: with rbpms_human RBPMS
row,effect of a mutation on the interaction,Variant
1,with no effect,MPNPRPGKPSAPSLALGPSPGASPSWRAAPKASDLLGARGPGGTFQGRDLRGGAHASSSSLNPMPPSQLQLPTLPLVMVAPSGARLGPLPHLQALLQDRPHFMHQLSMVDAHARTPVLQVHPLESPAMISLTPPTTATGVFSLKARPGLPPGINVASLEWVSREPALLCTFPNPSAPRKDSTLSAVPQSSYPLLANGVCKWPGCEKVFEEPEDFLKHCQADHLLDEKGRAQCLLQREMVQSLEQQLVLEKEKLSAMQAHLAGKMALTKASSVASSDKGSCCIVAAGSQGPVVPAWSGPREAPDSLFAVRRHLWGSHGNSTFPEFLHNMDYFKFHNMRPPFTYATLIRWAILEAPEKQRTLNEIYHWFTRMFAFFRNHPATWKNAIRHNLSLHKCFVRVESEKGAVWTVDELEFRKKRSQRPSRCSNPTPGP [T108M]

# Variants of: B3
# Details: with khdr2_human KHDRBS2, Q5VWX1
row,effect of a mutation on the interaction,Variant
1,with no effect,MSSEEGKLFVGGLNFNTDEQALEDHFSSFGPISEVVVVKDRETQRSRGFGFITFTNPEHASVAMRAMNGESLDGRQIRVDHAGKSARGTRGGGFGAHGRGRSYSRGGGDQGYGSGRYYDSRPGGYGYGYGRSRDYNGRNQGGYDHYSGGNYRDNYDN

# Variants of: B4
# Details: with ap2b1_human AP2B1, P63010
# ap2b1_human AP2B1, P63010, sequence (P63010 whole entry): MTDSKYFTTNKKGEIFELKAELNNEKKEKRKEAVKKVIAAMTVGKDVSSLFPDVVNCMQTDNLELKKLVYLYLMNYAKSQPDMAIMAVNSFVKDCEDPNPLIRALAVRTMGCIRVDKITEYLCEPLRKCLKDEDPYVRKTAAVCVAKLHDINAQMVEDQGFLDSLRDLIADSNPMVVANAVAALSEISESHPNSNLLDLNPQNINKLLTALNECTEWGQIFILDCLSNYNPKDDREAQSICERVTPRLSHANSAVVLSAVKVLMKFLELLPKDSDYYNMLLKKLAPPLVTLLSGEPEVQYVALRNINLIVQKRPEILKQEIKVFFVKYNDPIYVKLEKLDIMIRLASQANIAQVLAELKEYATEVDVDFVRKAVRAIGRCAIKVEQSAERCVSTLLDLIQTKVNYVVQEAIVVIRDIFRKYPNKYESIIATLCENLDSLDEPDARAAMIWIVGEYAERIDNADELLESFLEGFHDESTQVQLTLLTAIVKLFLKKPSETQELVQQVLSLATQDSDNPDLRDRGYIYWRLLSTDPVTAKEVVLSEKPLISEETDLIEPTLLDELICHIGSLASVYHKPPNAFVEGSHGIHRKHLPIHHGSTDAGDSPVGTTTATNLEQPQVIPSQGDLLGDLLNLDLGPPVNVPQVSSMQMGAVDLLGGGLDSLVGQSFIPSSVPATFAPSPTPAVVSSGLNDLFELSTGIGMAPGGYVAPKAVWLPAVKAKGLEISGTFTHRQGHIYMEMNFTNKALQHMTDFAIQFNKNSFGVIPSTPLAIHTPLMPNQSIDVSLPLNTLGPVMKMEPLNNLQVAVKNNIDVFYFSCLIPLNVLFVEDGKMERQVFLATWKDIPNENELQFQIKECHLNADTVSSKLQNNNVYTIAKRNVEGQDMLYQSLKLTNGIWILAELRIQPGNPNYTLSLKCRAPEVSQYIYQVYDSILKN
row,effect of a mutation on the interaction,Variant
1,with no effect,MTEQAISFAKDFLAGGIAAAISKTAVAPIERVKLLLQVQHASKQIAADKQYKGIVDCIVRIPKEQGVLSFWRGNLANVIRYFPTQALNFAFKDKYKQIFLGGVDKHTQFWRYFAGNLASGGAAGATSLCFVYPLDFARTRLAADVGKSGTEREFRGLGDCLVKITKSDGIRGLYQGFSVSVQGIIIYRAAYFGVYDTAKGMLPDPKNTHIVVSWMIAQTVMAVAGVVSYPFDTVRRRMMMQSGRKGADIMYTGTVDCWRKIFRDEGGKAFFKGAWSNVLRGMGGAFVLVLYDELKKVI [T221M]

# Variants of: B5
# Details: with rxrb_human RXRB
row,effect of a mutation on the interaction,Variant
1,with no effect,MASNSSSCPTPGGGHLNGYPVPPYAFFFPPMLGGLSPPGALTTLQHQLPVSGYSTPSPATIETQSSSSEEIVPSPPSPPPLPHIYKPCFVCQDKSSGYHYGVSACEGCKGFFRRSIQKNMVYTCHRDKNCIINKVTRNRCQYCRLQKCFEVGMSKESVRNDRNKKKKEVPKPECSESYTLTPEVGELIEKVRKAHQETFPALCQLGKYTTNNSSEQRVSLDIDLWDKFSELSTKCIIKTVEFAKQLPGFTTLTIADQITLLKAACLDILILRICTRYTPEQDTMTFSDGLTLNRTQMHNAGFGPLTDLVFAFANQLLPLEMDDAETGLLSAICLICGDRQDLEQPDRVDMLQEPLLEALKVYVRKRRPSRPHMFPKMLMKITDLRSISAKGAERVITLKMEIPGSMPPLIQEMLENSEGLDTLSGQPGGGGRDGGGLAPPPGSCSPSLSPSSNRSSPATHSP [R83H]
2,disrupting interaction strength,MASNSSSCPTPGGGHLNGYPVPPYAFFFPPMLGGLSPPGALTTLQHQLPVSGYSTPSPATIETQSSSSEEIVPSPPSPPPLPRIYKPCFVCQDKSSGYHYGVSACEGCKGFFRRSIQKNMVYTCHRDKNCIINKVTRNRCQYCRLQKCFEVGMSKESVRNDRNKKKKEVPKPECSESYTLTPEVGELIEKVRKAHQETFPALCQLGKYTTNNSSEQRVSLDIDLWDKFSELSTKCIIKTVEFAKQLPGFTTLTIADQITLLKAACLDILILRICTRYTPEQDTMTFSDGLTLNRTQMHNAGFGPLTDLVFAFANQLLPLEMDDAETGLLSAICLICGDRQDLEQPDRVDMLQEPLLEALKVYVRKRRPSRPHMFLKMLMKITDLRSISAKGAERVITLKMEIPGSMPPLIQEMLENSEGLDTLSGQPGGGGRDGGGLAPPPGSCSPSLSPSSNRSSPATHSP [P375L]
